This note sets out measurements from patent publication US20210196795A1 (LAURANTIS PHARMA, published 2021).

Experiment [1] addresses human CCBE1 fused to a V5 tag (human) (UniProt Q6UXH8). Briefly: cell-based or functional assay.
Experiment [2] deals with T1, uncleaved full-length VEGF-C (58 kDa precursor) (Homo sapiens (Human), UniProt P49767 32-419).
T1 construct: Made by transfected 293T cells from the mammalian VEGF-C construct of Joukov et al 1997; also called VEGF-C precursor; prepro-VEGF-C
T1 sequence: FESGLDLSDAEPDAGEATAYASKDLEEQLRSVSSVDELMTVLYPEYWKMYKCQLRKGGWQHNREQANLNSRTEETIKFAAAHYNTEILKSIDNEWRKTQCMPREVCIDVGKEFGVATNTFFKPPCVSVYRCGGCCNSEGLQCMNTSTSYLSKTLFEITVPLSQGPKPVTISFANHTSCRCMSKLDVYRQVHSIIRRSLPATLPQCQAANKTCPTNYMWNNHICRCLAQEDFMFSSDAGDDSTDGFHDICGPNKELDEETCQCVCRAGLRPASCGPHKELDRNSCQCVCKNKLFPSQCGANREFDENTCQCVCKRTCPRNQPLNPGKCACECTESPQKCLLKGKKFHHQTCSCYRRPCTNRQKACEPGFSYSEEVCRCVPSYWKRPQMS
Briefly: Strep-Tactin pull-down of mixed 293T conditioned media (CCBE1-strepIII and full-length VEGF-C, 10 min at RT), Western blot with anti-CCBE1 antibody and anti-VEGF-C antiserum. The method, then:
Co-immunoprecipitation analysis of strep-tagged CCBE1. […] Mixed media were incubated for 10 min at RT before being applied to the pull-down.
(A western blot detects proteins with antibodies after separation by electrophoresis.)

“VEGF-C N-terminal propeptide, hexahistidine-tagged (from UniProt P49767 32-111)” gave an inhibition of VEGF-C processing in experiment [1] of 43%. Same read-out and setting: under “VEGF-C C-terminal propeptide, hexahistidine-tagged (from UniProt P49767 228-419)” stands 79%.

B1: CCBE1-strepIII (human CCBE1 with StrepIII-tag) (other)
chain: YREEPEDGDREICSESKIATTKYPCLKSSGELTTCYRKKCCKGYKFVLGQCIPEDYDVCAEAPCEQQCTDNFGRVLCTCYPGYRYDRERHRKREKPYCLDIDECASSNGTLCAHICINTLGSYRCECREGYIREDDGKTCTRGDKYPNDTGHEKSENMVKAGTCCATCKEFYQMKQTVLQLKQKIALLPNNAADLGKYITGDKVLASNTYLPGPPGLPGGQGPPGSPGPKGSPGFPGMPGPPGQPGPRGSMGPMGPSPDLSHIKQGRRGPVGPPGAPGRDGSKGERGAPGPRGSPGPPGSFDFLLLMLADIRNDITELQEKVFGHRTHSSAEEFPLPQEFPSYPEAMDLGSGDDHPRRTETRDLRAPRDFYP
notes: Secreted into 293T conditioned medium; also called strep-tagged CCBE1; not shown: StrepIII-tag (Junttila et al 2005) inserted immediately after the CCBE1 CDS
On to B1, for which the binding result in experiment [2] is given as “no binding”.
